Results as given in patent US20100055110A1 (XOMA TECHNOLOGY, published 2010).

Molecular target: recombinant human IL-1β (human, UniProt P01584 117-269)
Test: cell-based or functional assay

B1: AB1 (antibody, V domains shown)
VH: QVTLKESGPGILKPSQTLSLTCSFSGFSLSTSGMGVGWIRQPSGKGLEWLAHIWWDGDESYNPSLKTQLTISKDTSRNQVFLKITSVDTVDTATYFCARARYDPPWFVDWGQGTLVTVSS
VL: DIQMTQTTSSLSASLGDRVTISCRASQDISNYLSWYQQKPDGTVKLLIYYTSKLHSGVPSRFSGSGSGTDYSLTISNLEQEDIATYFCLQGKMLPWTFGGGTKLEIK
IC50 (read off the curve); % inhibition of IL-6 release from human fibroblasts stimulated with IL-1 beta at 100 pg/ml: ~0.2 nM
